The record followed here is article PMC7954794, “Protein context shapes the specificity of SH3 domain-mediated interactions in vivo” (Nature Communications, 2021).

The test deals with SH3-deleted bait proteins (1xFLAG). Put plainly: Western blot expression level of SH3-deleted baits (Fig. S1F-G). Type of test: cell-based, Saccharomyces cerevisiae. Particulars: Western blot Flag signal, 1xFLAG-tagged WT or SH3-deleted bait; sheet FigS1F-G. Here is the method: Precultures of yeast cells expressing baits fused with the DHFR F[1,2]-FLAG were grown overnight at 30 °C with agitation in synthetic complete medium. The next day, cells were expanded in synthetic complete medium to reach their exponential phase (OD600 of around 1.0), pelleted, and frozen at −80 °C. The equivalent of fifty OD600 of cells was resuspended in ice-cold yeast lysis buffer (10 mM Tris-HCl pH 7.4, 150 mM NaCl, 0.5 mM EDTA (Millipore Sigma), 1% Triton X-100 (Millipore Sigma), and one cOmplete Mini Protease Inhibitor Cocktail (Millipore Sigma) per 10 mL) with […] glass beads (Millipore Sigma) and disrupted at 4 °C by 10 cycles of 2 min vortexing and 2 min cooldown. The equivalent of […] of lysed cells was used for the immunoprecipitation of the bait proteins using FLAG-M2 agarose beads (Millipore Sigma). The beads were incubated with the cell lysates for 120 min at 4 °C with a slow rotation, followed by three washes with the yeast lysis buffer.
Protein extracts and affinity-purified baits from yeast and human lysed cells were migrated on 10% polyacrylamide gels. The separated proteins were then transferred to nitrocellulose membranes. Validation of correct protein loading was done with ponceau staining of the membranes. Before the primary antibody incubations, membranes were blocked in 5% milk. Protein signals were detected on an Amersham Imager 600RGB (GE Healthcare) following the incubation of the membranes with the appropriate HRP-conjugated secondary antibodies and the Clarity Western ECL Substrate (Bio-Rad). The antibodies used in this study are M2-HRP (A8592, Sigma, 1/50,000), rabbit anti-FLAG (F7425, Sigma, 1/1000), PAK (SC-881, Santa Cruz, 1/200), p130cas/BCAR1 (SC-860, Santa Cruz, 1/200), actin (Cell Signaling Technology, 1/2000), anti-mouse HRP (Cell Signaling Technology, 1/10,000) and anti-rabbit HRP (Cell Signaling Technology, 1/10,000). The quantification of the WB signals was performed with the Amersham Imager 600 analysis software (GE Healthcare).

B1: Sho1 WT (protein, UniProt P40073 1-367, looked up)
High osmolarity signaling …: MSISSKIRPTPRKPSRMATDHSFKMKKFYADPFAISSISLAIVSWVIAIGGSISSASTNESFPRFTWWGIVYQFLIICSLMLFYCFDLVDHYRIFITTSIAVAFVYNTNSATNLVYADGPKKAAASAGVILLSIINLIWILYYGGDNASPTNRWIDSFSIKGIRPSPLENSLHRARRRGNRNTTPYQNNVYNDAIRDSGYATQFDGYPQQQPSHTNYVSSTALAGFENTQPNTSEAVNLHLNTLQQRINSASNAKETNDNSNNQTNTNIGNTFDTDFSNGNTETTMGDTLGLYSDIGDDNFIYKAKALYPYDADDDDAYEISFEQNEILQVSDIEGRWWKARRANGETGIIPSNYVQLIDGPEEMHR
For the molecule B1, the Flag is on record as 42239.

B2: Myo5 WT (protein, UniProt Q04439 1-1219, looked up)
Myosin-5: MAILKRGARKKVHQEPAKRSANIKKATFDSSKKKEVGVSDLTLLSKISDEAINENLKKRFLNATIYTYIGHVLISVNPFRDLGIYTDAVMNEYKGKNRLEVPPHVFAIAESMYYNMKSYNENQCVIISGESGAGKTEAAKRIMQYIAAASSTHTESIGKIKDMVLATNPLLESFGCAKTLRNNNSSRHGKYLEIKFNNQFEPCAGNITNYLLEKQRVVSQIKNERNFHIFYQFTKGASDAYRQTFGVQKPEQYVYTAAAGCISAETIDDLQDYQETLKAMRVIGLGQEEQDQIFRMLAAILWIGNVSFIENEEGNAQVRDTSVTDFVAYLLQIDSQLLIKSLVERIMETNHGMKRGSVYHVPLNIVQADAVRDALAKAIYNNLFDWIVSRVNKSLQAFPGAEKSIGILDIYGFEIFEHNSFEQICINYVNEKLQQIFIQLTLKSEQETYEREKIQWTPIKYFDNKVVCDLIEARRPPGIFAAMNDSVATAHADSNAADQAFAQRLNLFTTNPHFDLRSNKFVIKHYAGDVTYDIDGITDKNKDQLQKDLVELIGTTTNTFLATIFPDTVDRESKRRPPTAGDKIIKSANDLVETLSKAQPSYIRTIKPNETKSPNDYDDRQVLHQIKYLGLQENVRIRRAGFAYRQVFEKFVERFYLLSPHCSYAGDYTWQGDTLDAVKYILQDSSIPQQEYQLGVTSVFIKTPETLFALEHMRDRYWHNMAARIQRAWRRFLQRRIDAATKIQRTIRERKEGNKYEKLRDYGTKVLGGRKERRSMSLLGYRAFMGDYLSCNESKSKGAYIKRQVSIKEKVIFSIHGEALHTKFGRSAQRLKKTFLLTPTTLYIVGQTLVQNAMTYTQDYKIDVRNIQAVSLTNLQDDWVAIKLASSGQPDPLINTYFKTELITHLKRLNDKIQIKIGSAIEYQKKPGKLHSVKCQINESAPKYGDIYKSSTISVRRGNPPNSQVHKKPRKKSSISSGYHASSSQATRRPVSIAAAQHVPTAPASRHSKKPAPPPPGMQNKAATRRSVPNPASTLTASQSNARPSPPTAATRATPAATPAAAAMGSGRQANIPPPPPPPPPSSKPKEPMFEAAYDFPGSGSPSELPLKKGDVIYITREEPSGWSLGKLLDGSKEGWVPTAYMKPHSGNNNIPTPPQNRDVPKPVLNSVQHDNTSANVIPAAAQASLGDGLANALAARANKMRLESDDEEANEDEEEDDW
As for B2, the Flag is given as 93590.
